Source: article PMC3001195 (Structure (London, England : 1993), 2010)
Substitutions are numbered along the chain they refer to. Names may count otherwise.

Legend:
[1] = target: the molecule itself; experiment: negative-stain electron microscopy
[2] = target: the molecule itself; experiment: crystal structure
[3] = target: the molecule itself; experiment: SEC

B1: NtrC1^C,WT, central (AAA+ ATPase) domain of NtrC1 of Aquifex aeolicus (domain or fragment)
chain: RKENELLRREKDLKEEEYVFESPKMKEILEKIKKISCAECPVLITGESGVGKEVVARLIHKLSDRSKEPFVALNVASIPRDIFEAELFGYEKGAFTGAVSSKEGFFELADGGTLFLDEIGELSLEAQAKLLRVIESGKFYRLGGRKEIEVNVRILAATNRNIKELVKEGKFREDLYYRLGVIEIEIPPLRERKEDIIPLANHFLKKFSRKYAKEVEGFTKSAQELLLSYPWYGNVRELKNVIERAVLFSEGKFIDRGELSCLVNSK
In the case of B1, the “stoichiometry N” value [1] is reported as 7.

B2: NtrC1^C,E239A, Walker-B variant of the central domain of NtrC1 of Aquifex aeolicus (domain or fragment)
chain: B1 chain with E118A
B2 was tested, and the “stoichiometry N” value [2] was 7.

B3: NtrC1^C,R293A (domain or fragment, Aquifex aeolicus)
chain: B1 chain with R172A
B3: binds [3].
